Among the data in paper PMC10575957 are stoichiometry N values, retold here.

Holding throughout (test): cryo-EM structure; portal-tail complex of the native P-SCSP1u virion, symmetry-mismatch reconstruction, C6 symmetry, 3.8 Å; virions in SM buffer
Assay [1] addresses P-SCSP1u adaptor protein (gp22) (cyanophage P-SCSP1u).
In assay [2] the target is P-SCSP1u portal protein (gp16) (cyanophage P-SCSP1u).
Assay [3] concerns the target P-SCSP1u nozzle protein (gp23) (cyanophage P-SCSP1u).
Assay [4] has as its target P-SCSP1u fiber protein (gp28) (cyanophage P-SCSP1u).

With “P-SCSP1u adaptor protein (gp22) (natural protein)”, the stoichiometry N in assay [1] turned out to be 12.
In the case of “P-SCSP1u portal protein (gp16) (natural protein)”, the stoichiometry N in assay [2] came out at 12.
In turn, “P-SCSP1u nozzle protein (gp23) (natural protein)” had a stoichiometry N in assay [3] of 6.
As to “P-SCSP1u fiber protein (gp28) (natural protein)”, the stoichiometry N in assay [4] came out at 3.

For orientation: stoichiometry N means the number of molecules, sites or subunits per partner or assembly.
